The target of data set [1] is T1, Histone H2A.Z, full length (UniProt P0C0S5 P0C0S5:2-128). Nature of the data set: EMSA; no detectable RNP. Conditions: tags: Abcam; label: 5'-32P. Here is the method: (§1) Indeed, mutation of RM9A abolishing the predicted stem-loop structure, did change the strength and the mobility of the RNA-TIP60 complexes (Mut RM9A; FIG. 3E, lane 5).
(§2) RNA oligonucleotides (15 pmol) were end-labeled with [γ-³²P] ATP (Perkin Elmer) and T4 polynucleotide kinase (New England Biolabs). Reactions were incubated at 37° C. for 1 h and then passed through G-25 spin columns (GE Healthcare) according to the manufacturer's instructions to remove unincorporated radioactivity. Labeled samples were gel-purified on 10% polyacrylamide gels. Binding reactions were carried out in 10 μL volumes in the following buffer: 5 mM Tris pH 7.4, 5 mM MgCl₂, 1 mM DTT, 3% v/v glycerol, 100 mM NaCl. 5 μg of full length purified H2A.Z (Abcam) and TIP60 (SignalChem) proteins were incubated with 1.1 nM of ³²P-labeled ss RNAs. All reactions were assembled on ice and then incubated at room temperature for 30 min. Samples were loaded onto 6% native polyacrylamide gels (0.5×TBE) at 4° C. for 3 h at 140 V. Various concentrations (1 μM-10 mM) of H2A.Z and K7 acetylated H2A.Z peptides (AnaSpec) were incubated with a fixed amount of probe in 50 mM Tris-HCl pH 7.5, 100 mM NaCl, 0.4 mM EDTA, and 40 U/ml RNasin, 1 mM DTT, 50% glycerol in a final volume of 10 μL. Thereafter, 1 μl glutaraldehyde (0.2% final concentration) was added into the mixture and incubated at room temperature for 15 minutes. Samples were loaded onto 10% native polyacrylamide gels (0.5×TBE) at 4° C. for 3 h at 170 V. All gels were dried upon fixation with Methanol and Acetic Acid and exposed to X-ray film.

For data set [2], the target named is T2, TIP60 (KAT5), full length (UniProt Q92993 Q92993:1-513). The data set is described as follows: EMSA; no detectable RNP. Conditions: tags: SignalChem; label: 5'-32P. How it is done:
as §1, §2
Background: Mobility shift assays separate free from complexed probe on a gel.

The target in data set [3] is T1, Histone H2A.Z, full length. Nature of the data set: EMSA; 5 mM Tris pH 7.4, 5 mM MgCl2, 100 mM NaCl, RT. Conditions: tags: Abcam; label: 5'-32P; predicted stem-loop. How it is done: as §1
as §2, with “Samples were loaded onto 10% native polyacrylamide gels (0.5×TBE) at 4° C. for 3 h at 170 V. All gels were dried upon fixation with Methanol and Acetic Acid and exposed to X-ray film.” left out

In data set [4] the target is T2, TIP60 (KAT5), full length. The data set is described as above. As to conditions: tags: SignalChem; label: 5'-32P; predicted stem-loop. Here is the method:
as §1
as §2, with “Samples were loaded onto 10% native polyacrylamide gels (0.5×TBE) at 4° C. for 3 h at 170 V. All gels were dried upon fixation with Methanol and Acetic Acid and exposed to X-ray film.” left out

For data set [5], the target named is T3, acH2A.Z N-terminal peptide (K7 acetylated).
T3 chain: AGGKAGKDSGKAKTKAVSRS
Nature of the data set: EMSA; K7 acetylation did not abrogate binding; glutaraldehyde crosslink. As to conditions: protein: synthetic, tags: synthetic peptide, AnaSpec, label: 5'-32P, predicted stem-loop. Here is the method:
as §1
as §2, with “Samples were loaded onto 10% native polyacrylamide gels (0.5×TBE) at 4° C. for 3 h at 170 V. All gels were dried upon fixation with Methanol and Acetic Acid and exposed to X-ray film.” left out

Another data set concerns the target T4, H2A.Z N-terminal peptide.
T4 chain: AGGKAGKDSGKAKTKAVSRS
Nature of the data set: EMSA; peptide 1 uM-10 mM, glutaraldehyde crosslink. As to conditions: protein: synthetic; tags: synthetic peptide, AnaSpec; label: 5'-32P; predicted stem-loop. Here is the method:
as §1
as §2, with “Samples were loaded onto 10% native polyacrylamide gels (0.5×TBE) at 4° C. for 3 h at 170 V. All gels were dried upon fixation with Methanol and Acetic Acid and exposed to X-ray film.” left out

T2 sequence (Q92993 whole entry, one chain of several): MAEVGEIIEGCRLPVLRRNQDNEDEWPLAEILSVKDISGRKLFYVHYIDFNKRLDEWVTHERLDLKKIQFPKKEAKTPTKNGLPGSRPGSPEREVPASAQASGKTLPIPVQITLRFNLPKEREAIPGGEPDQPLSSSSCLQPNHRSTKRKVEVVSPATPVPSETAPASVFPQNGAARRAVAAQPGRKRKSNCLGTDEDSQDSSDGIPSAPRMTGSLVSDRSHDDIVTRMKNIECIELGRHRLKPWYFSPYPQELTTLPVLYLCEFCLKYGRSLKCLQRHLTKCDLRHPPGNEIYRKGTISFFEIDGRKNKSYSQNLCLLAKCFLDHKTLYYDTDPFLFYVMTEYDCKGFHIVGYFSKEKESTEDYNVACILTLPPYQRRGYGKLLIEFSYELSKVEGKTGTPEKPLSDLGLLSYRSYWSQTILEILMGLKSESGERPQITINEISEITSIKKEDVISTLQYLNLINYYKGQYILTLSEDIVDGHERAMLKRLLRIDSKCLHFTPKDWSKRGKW

B1: UR3 (ssRNA)
RNA: GCCCUUUCCCCAGCCUUAGCGA
As to B1, the binding result in data set [1] and in data set [2] was “no binding” each time.

B2: UR2 (ssRNA)
RNA: CUUUCCUCCACUCUCCCUGGGA
Turning to B2, the binding result in data set [1] and in data set [2] was “no binding” each time.

B3: RM9A (ssRNA)
RNA: GGCGUGGCGGUGGGCGCGCAGU
Take B3: the binding result (in data set [3]; in data set [4]; in data set [5]; with H2A.Z N-terminal peptide) was “binds” in each case.

B4: UR1 (ssRNA)
RNA: GCGCCCUGCAGCCUGGUACGCG
Take B4: the binding result in data set [1] and in data set [2] was “no binding” in each case.

These data come from patent publication US20240209456, “METHODS AND COMPOSITIONS RELATED TO CELL-CYCLE RNA's” (BETH ISRAEL DEACONESS MEDICAL CENTER, published 2024).
